53 sequences from the supplement of paper PMC12764529 can be followed below.

± gives the half width of the 95% confidence interval. Some results are limits rather than exact numbers.

The nature of the series: folding stability dG unfold (combined trypsin and chymotrypsin); higher = more stable. On the procedure: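 Folding stability of de novo designed mini-proteins (<80 aa, no Cys; designed by TrROS, TrMRF, ProteinMPNN and the joint model) was measured by cDNA display proteolysis with trypsin and chymotrypsin. Each protease was used at 11 concentrations in a threefold dilution series plus a no-protease condition. K50 was inferred by Bayesian fitting of sequencing counts, and dG unfold was derived against a sequence-predicted unfolded-state K50 (Tsuboyama et al. method). Sequences shown include variable-length N-terminal GS-type padding (SAGGSAGG...) inside a display construct carrying a PA tag. Rows were kept only if the AF2 dimer inter-PAE was >15, to exclude likely homo-oligomers.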
Turning to “EPNYLVQIEIEPRMYQKDEDGKPLKPQPMKQPFFGPADDPEQVKDNLRDNFGPEVEIDEVMPLEDINEGQFS [r1_493_TrROS]”, the “folding stability dG unfold” value is less than -1 kcal/mol.

As for “NWVVWAKLTNPEEGERKTYEVPVPPGEEPTEEEILDQAKDMLGRPKEDLRKNVEIEPYPENGWAEIEIRIRS [r1_285_TrROS]”, the “folding stability dG unfold” value was less than -1 kcal/mol.

For “PDDPEEQREQMPPIPPEWAEELARKFAEKLGDEEVTEVEVDDITPNGYIEVEIENPDGGEVKIEIPMDDIMS [r1_435_TrROS]”, the “folding stability dG unfold” value was less than -1 kcal/mol.

For the sequence “SAAEWLKEEGLKVKDVEVTKPRENPNGKREMEYRIKVRLPNKKVEVPIRMPSDSPETALNMAHNILRELSAG [r14_726_TrROS]”, the “folding stability dG unfold” value was less than -1 kcal/mol.

On to “SAELVLASVEKKGDEVIAVTAFPDGLFVKVKTKDGKIFAAPLPAENIGPQVEALKKAFPGVEVEPFLAESAG [r14_528_TrMRF]”, for which the “folding stability dG unfold” value was less than -1 kcal/mol.

On to “SAGGANAKDVKRDGNNIQITFDGQILFKIQPPKPVPPVRVRHPDGKEHHAPLEDLKKENPDNWEIEPPSAGG [r13_802_TrROS]”, for which the “folding stability dG unfold” value is less than -1 kcal/mol.

As for “SAGGASVPVEPRLDASGRERVRATLEIRPTLPNGTRTSRAVPVEFASRAELRAFIAARAPTADAVLLSAGGS [r16_652_JUSTAS]”, the “folding stability dG unfold” value is less than -1 kcal/mol.

“SAGGDDFRVERFHPGEPREPREIDGDADDLLEELPPNDSYVHIEFKDDGGKKRIQMDTPEDLKNFIRDSAGG [r13_299_TrROS]”: the “folding stability dG unfold” value was less than -1 kcal/mol.

With “SAGGDKKKKEVEFRFPGMPFRVSIQVDPDEGKIPIEIYNPDNGQSLDDLKSNPAMQQMVREAANALKSAGGS [r16_96_TrROS]”, the “folding stability dG unfold” value is less than -1 kcal/mol.

For the sequence “SAGGDPDWKPIEFNLQRTVKPGDPEQIEEKAREFFEMFGIKSVTDVERERNPEGQQTVQASVKIRFPDSAGG [r13_222_TrROS]”, the “folding stability dG unfold” value is less than -1 kcal/mol.

Take “SAGGDWIPFRIKQYDPKDGKPKREWPIQYNPEDGMMQIRPPDGKKHEFPMPMQEILENLPPGFEIEPSAGGS [r16_543_TrROS]”: the “folding stability dG unfold” value is less than -1 kcal/mol.

Consider “SAGGEKVPLKIRDPDNGNPHEFDKIESIDSVEMQKPPDNRQQYSIRFPGDGRPIMIDDPEDIEEALKSAGGS [r8_206_TrROS]”, for which the “folding stability dG unfold” value was less than -1 kcal/mol.

On to “SAGGGMNEPVPKVTVTTTSVSVEPPPDLPGIAKVYTPTVITTDDEAVAEAIAEEIAAQPDVEYEDTGASAGG [r13_606_JUSTAS]”, for which the “folding stability dG unfold” value is less than -1 kcal/mol.

As for “SAGGGPEVVETVETPATETEVSRLPNGELLVTTTTQVTTFVRVGDELRRERVETVTTTEIVSPEELGSAGGS [r16_109_JUSTAS]”, the “folding stability dG unfold” value is less than -1 kcal/mol.

With “SAGGGSIEDSNLSEEEIKEILSKLPEPVTVTVKRKEVKKVTYFENGKVKEEKIVEKEKTEVYYFPPKKSAGG [r13_632_JUSTAS]”, the “folding stability dG unfold” value is less than -1 kcal/mol.

As to “SAGGGSKIIEVPVIVEPDEDLGKVAEEIAKKIFPENEKVIVKVEKFENSYRIEIFNPEDGKPIIEGEGSAGG [r13_724_TrMRF]”, the “folding stability dG unfold” value was less than -1 kcal/mol.

Take “SAGGGVSYSFSSSGSGSTVTIYIPGSGKTLKRKVNPNDTITDIPSSAKPYKVVKEVNDEKPVEEELGSAGGS [r8_487_JUSTAS]”: the “folding stability dG unfold” value is -0.855 ± 0.72 kcal/mol.

In the case of “SAGGIMFDSPEEAEELADNGRIKPVNRGKQKHKDNGKEREHEMYMVKIKDPEDNKPVQVMIPADQIRSAGGS [r16_271_TrROS]”, the “folding stability dG unfold” value is less than -1 kcal/mol.

For “SAGGKIGQEVDPGEPITIPIVKRDGDNPKKEKINFRLPPGMRIRPKDDNIMIRFPGNGQEQTIPLKDLSAGG [r13_275_TrROS]”, the “folding stability dG unfold” value was less than -1 kcal/mol.

With “SAGGKNPEENDPEYQKPPKIPSRTIPFPAEQALAWAKELPGFDNIMVEAGGKWVEIDLDDGKIEPYGSAGGS [r16_214_TrROS]”, the “folding stability dG unfold” value is less than -1 kcal/mol.

In the case of “SAGGKPPKIKIKVEHEPYPGNGRYYMEVELEDPDDGKPIEIPFRGDSPEEAEENAKEIAREIAKELKSAGGS [r8_480_TrROS]”, the “folding stability dG unfold” value is less than -1 kcal/mol.

Take “SAGGLPSPDAVVEEESLELSFESSSEVVVTKKKTTKKVLPNGKVETETEEEEEVVKATKEEIEKLKKESAGG [r13_544_JUSTAS]”: the “folding stability dG unfold” value is less than -1 kcal/mol.

Take “SAGGLTITVTPSVSENEVVVPGTGKPRFPEPRETYTVTVTPAPDVSLEEVAAEIREKFPGRGYTLTPSAGGS [r8_30_JUSTAS]”: the “folding stability dG unfold” value is less than -1 kcal/mol.

With “SAGGMDDVIRKALEEATPPLEVKEELILTTEPTPRGTVITKTTRPIIKSPEPGTFVPEPVEVVPAALLSAGG [r19_11_JUSTAS]”, the “folding stability dG unfold” value was less than -1 kcal/mol.

On to “SAGGMDPAEAREIAKEIMKKFEENGRPYYAKITIRPDPKIQDIDIMPPGEPLEPRADPGQRTIMFRFPSAGG [r13_693_TrROS]”, for which the “folding stability dG unfold” value was less than -1 kcal/mol.

On to “SAGGMELKVVTLEATSGRREDAGLVPAALEEGARELALAHPELRILGADMEVEPLGEEYVARIPLVVGSAGG [r13_305_TrMRF]”, for which the “folding stability dG unfold” value is less than -1 kcal/mol.

On to “SAGGMITTEREVEVPPDELDEVIERLKAEVAAQPLEPAEDIKILEIEEKEEKAVIKYKVTAKVEGEKLLSAG [r5_575_JUSTAS]”, for which the “folding stability dG unfold” value was less than -1 kcal/mol.

Take “SAGGMKAEIVNPNLSPEELKELILKAPEAKDVDIEVKKTSAKGAVSAKITTKSEKEAETIKKAVEEAVSAGG [r13_580_JUSTAS]”: the “folding stability dG unfold” value is less than -1 kcal/mol.

For the sequence “SAGGMLRTVKTEKYSDGTVVEPVADAAGNVTYTIVKKRKKVFDGDKVYYSEPVTIFKNGVKVEEKNISSAGG [r13_1007_JUSTAS]”, the “folding stability dG unfold” value is less than -1 kcal/mol.

With “SAGGMNMYLRVEQYRKKPNGEPEKRELSIPFPPNEPVEEIADELQKDNPYIKVEIYSPGTGKQQTITISAGG [r13_663_TrROS]”, the “folding stability dG unfold” value was less than -1 kcal/mol.

Take “SAGGMPPSFVVEEEKTVEGTSTVTLRKITNPSSSEDMLSEIVTPPDGSVTLILKKDNIIEVIPSSELSAGGS [r16_49_JUSTAS]”: the “folding stability dG unfold” value was less than -1 kcal/mol.

As for “SAGGMPVVTPTTSTEPLPGGRAATVTTYTPPDGLVRQEVTLPPERRLFRLIDPATGEVVEKEEAELESAGGS [r16_735_JUSTAS]”, the “folding stability dG unfold” value is less than -1 kcal/mol.

Consider “SAGGMRIPLKQIKDVNHQPPPGNGYPMVTVKVRDGGKPHTHTIPNNMNWEEAKRMVEEALDEGPIEIESAGG [r13_225_TrROS]”, for which the “folding stability dG unfold” value was less than -1 kcal/mol.

Take “SAGGMSPDATITENLVTDSEEEALAKLLADPSVAEVKPLGVKPDKTKEGKPVIIVPVELRIPADGVRLSAGG [r19_221_JUSTAS]”: the “folding stability dG unfold” value was less than -1 kcal/mol.

On to “SAGGMTIDSPEEAVQAIEDNPDKPLTLLVPTDPSTGSVPEEVVQAFAEPGFPISRDPAGYWTITYPPSAGGS [r16_335_JUSTAS]”, for which the “folding stability dG unfold” value was less than -1 kcal/mol.

With “SAGGMTSTFRFSDSRGRLSVEKITPETGKVTVVEQGPSSPRRSTLNASPEEAFQQLKDANDFPASRLESAGG [r13_141_JUSTAS]”, the “folding stability dG unfold” value is less than -1 kcal/mol.

For “SAGGMVLSDVLPDGTVKPVSEEKIKEIVEKIEKEINAKIEVKIEKKWEGDKWVTTIPVTLIGLSPKLISAGG [r13_790_JUSTAS]”, the “folding stability dG unfold” value is less than -1 kcal/mol.

“SAGGMVVEEEPTKTVVEEVVPLPGGSPVRRITEEVLLPDGSVASRTTVFRPPGEREEETSLDPVPPEASAGG [r13_21_JUSTAS]”: the “folding stability dG unfold” value was less than -1 kcal/mol.

For the sequence “SAGGNKTREREIPIPPGDSPDQAVDRVLEELEKHPDNNNVNINFRHPNGMPIKIRVTPNGKITEVEPYSAGG [r13_690_TrROS]”, the “folding stability dG unfold” value is less than -1 kcal/mol.

For “SAGGPGVEIVEVDPDGTLRVRAYDPATREPIAEAEIRIGALPVPPPVPGVPVLLADGELREVELPAALSAGG [r13_9_TrMRF]”, the “folding stability dG unfold” value was less than -1 kcal/mol.

As for “SAGGPGYWRIKIYPKDTGKPHEFPIPLDQIRKVDPKNNKIEISFPNGPTIKIPDPEDIKAVQIEPWPSAGGS [r8_111_TrROS]”, the “folding stability dG unfold” value was less than -1 kcal/mol.

As for “SAGGPKIEVDVKHQRTPDGMYRMRVTAVVPGNGRKIKITMPMPPDDPSPMPKMAKSIAKELANDPGLKSAGG [r13_968_TrROS]”, the “folding stability dG unfold” value is less than -1 kcal/mol.

As to “SAGGPKIHIDRGPDYIRVKINGPDGKPIAPSTIPYEDPDNGEEEEVKIPIEELAQESGFPIEIEPYDSAGGS [r16_778_TrROS]”, the “folding stability dG unfold” value was less than -1 kcal/mol.

In the case of “SAGGPMPPGQPVNIHIEIENPNGNERTIPVPGPVGDPDWFKEIAEKLKEEGWKIKKIHPGNGVIEIKSAGGS [r8_497_TrROS]”, the “folding stability dG unfold” value is less than -1 kcal/mol.

As to “SAGGPMVTWRIKFPGKKIEVMWNPDQMNVNIYDPDKPKEVPIPMPPGEPPTADDILDELKKDGFKIEPSAGG [r13_687_TrROS]”, the “folding stability dG unfold” value is less than -1 kcal/mol.

“SAGGPMWQVRLRDPDGKKRTINIQQTNGNMYVRIQDKDGEPVKEHPVDSAEEALDKLEDHGYKVEVYPSAGG [r13_315_TrROS]”: the “folding stability dG unfold” value was less than -1 kcal/mol.

Consider “SAGGPPIMLRIKHPGPDQREKIKEIAQDYPIEPVNPTPGEHEFRFNGPEQVNRLQDIAEKNGWKIEISAGGS [r16_88_TrROS]”, for which the “folding stability dG unfold” value is less than -1 kcal/mol.

Regarding “SAGGPPKWKEVEFRMPPEDLKPDDIVDELQDDGIEIYNGDKPIDPGKSVDDLMQDNPNMPFTIKVWDSAGGS [r8_38_TrROS]”, the “folding stability dG unfold” value was less than -1 kcal/mol.

Consider “SAGGPSMSLSTRTVTLPVDPDTTEEEIKEALNREVKLPSPSTAIETPVEVEISPGPPVATVTLQVKILSSAG [r5_939_JUSTAS]”, for which the “folding stability dG unfold” value is less than -1 kcal/mol.

Turning to “SAGGQKITIDNVTPGMIRIRVPNGNEFEFPEIQKELQEHGNNQPPTADQIAEWLRKRNFPIKDIEISDSAGG [r13_610_TrROS]”, the “folding stability dG unfold” value is less than -1 kcal/mol.

Regarding “SAGGRPYKVKIKNPGSGKPYEMPIVDVHESDDNFYIMIQNPNGKNREAPLNNIDKAEVDEEGGTITLPSAGG [r13_211_TrROS]”, the “folding stability dG unfold” value is less than -1 kcal/mol.

Consider “SAGGSADMPMLPIEEIIDQLKEAKEANPNKKRTIEIPYPDGMPMQIEIDNDGKTKIEHPDGQWITISAGGSA [r15_73_TrROS]”, for which the “folding stability dG unfold” value is less than -1 kcal/mol.

Take “SAGGSAGGIKPGQRVRVKLEQWSPNGEPQKHTFPIKNIPPGFKPGQELTFPGPGHKWRIDEITRSAGGSAGG [r6_561_TrROS]”: the “folding stability dG unfold” value is less than -1 kcal/mol.
